The numbers were not newly measured in article PMC4122144, which cites them from elsewhere.

Targets include Arg82 (UniProt position 95, PIYWARYADWL); Asp212 (UniProt position 225, LFMVLDVSAKV); Asp85 (UniProt position 98, WARYADWLFTT); Asp96 (UniProt position 109, PLLLLDLALLV); Asp115 (UniProt position 128, ALVGADGIMIG).
Conditions in all cases: Not stated. Presumably ground-state bR, since the values are compared with calculations on the 1QHJ ground-state structure.

In general, pKa refers to the negative logarithm of the acid dissociation constant. As for “Bacteriorhodopsin (Halobacterium salinarum (not stated in the article; inferred))”, the pKa with Arg82 is listed as more than 13.8; with Asp212 it was less than 2.5; with Asp85, 2.6; with Asp96, more than 12.0; in the series with Asp115, more than 9.5.
